Measured values: patent US20140377774

Molecular target: T1, wild-type yeast Ugp1
T1 chain: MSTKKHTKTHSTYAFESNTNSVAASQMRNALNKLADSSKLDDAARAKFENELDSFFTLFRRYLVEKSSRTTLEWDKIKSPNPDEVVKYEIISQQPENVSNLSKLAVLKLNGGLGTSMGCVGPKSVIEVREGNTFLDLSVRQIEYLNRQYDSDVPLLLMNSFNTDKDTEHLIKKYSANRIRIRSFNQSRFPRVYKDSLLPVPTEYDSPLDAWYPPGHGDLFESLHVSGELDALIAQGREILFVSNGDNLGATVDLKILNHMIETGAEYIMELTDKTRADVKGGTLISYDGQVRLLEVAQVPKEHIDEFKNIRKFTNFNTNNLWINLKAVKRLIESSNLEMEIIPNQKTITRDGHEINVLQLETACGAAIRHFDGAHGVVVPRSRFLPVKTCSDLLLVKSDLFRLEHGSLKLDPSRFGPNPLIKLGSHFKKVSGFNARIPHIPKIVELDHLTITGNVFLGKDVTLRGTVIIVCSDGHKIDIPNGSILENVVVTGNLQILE

B1: human PASK (protein)
chain: MEDGGLTAFEEDQRCLSQSLPLPVSAEGPAAQTTAEPSRSFSSAHRHLSRRNGLSRLCQSRTALSEDRWSSYCLSSLAAQNICTSKLHCPAAPEHTDPSEPRGSVSCCSLLRGLSSGWSSPLLPAPVCNPNKAIFTVDAKTTEILVANDKACGLLGYSSQDLIGQKLTQFFLRSDSDVVEALSEEHMEADGHAAVVFGTVVDIISRSGEKIPVSVWMKRMRQERRLCCVVVLEPVERVSTWVAFQSDGTVTSCDSLFAHLHGYVSGEDVAGQHITDLIPSVQLPPSGQHIPKNLKIQRSVGRARDGTTFPLSLKLKSQPSSEEATTGEAAPVSGYRASVWVFCTISGLITLLPDGTIHGINHSFALTLFGYGKTELLGKNITFLIPGFYSYMDLAYNSSLQLPDLASCLDVGNESGCGERTLDPWQGQDPAEGGQDPRINVVLAGGHVVPRDEIRKLMESQDIFTGTQTELIAGGQLLSCLSPQPAPGVDNVPEGSLPVHGEQALPKDQQITALGREEPVAIESPGQDLLGESRSEPVDVKPFASCEDSEAPVPAEDGGSDAGMCGLCQKAQLERMGVSGPSGSDLWAGAAVAKPQAKGQLAGGSLLMHCPCYGSEWGLWWRSQDLAPSPSGMAGLSFGTPTLDEPWLGVENDREELQTCLIKEQLSQLSLAGALDVPHAELVPTECQAVTAPVSSCDLGGRDLCGGCTGSSSACYALATDLPGGLEAVEAQEVDVNSFSWNLKELFFSDQTDQTSSNCSCATSELRETPSSLAVGSDPDVGSLQEQGSCVLDDRELLLLTGTCVDLGQGRRFRESCVGHDPTEPLEVCLVSSEHYAASDRESPGHVPSTLDAGPEDTCPSAEEPRLNVQVTSTPVIVMRGAAGLQREIQEGAYSGSCYHRDGLRLSIQFEVRRVELQGPTPLFCCWLVKDLLHSQRDSAARTRLFLASLPGSTHSTAAELTGPSLVEVLRARPWFEEPPKAVELEGLAACEGEYSQKYSTMSPLGSGAFGFVWTAVDKEKNKEVVVKFIKKEKVLEDCWIEDPKLGKVTLEIAILSRVEHANIIKVLDIFENQGFFQLVMEKHGSGLDLFAFIDRHPRLDEPLASYIFRQLVSAVGYLRLKDIIHRDIKDENIVIAEDFTIKLIDFGSAAYLERGKLFYTFCGTIEYCAPEVLMGNPYRGPELEMWSLGVTLYTLVFEENPFCELEETVEAAIHPPYLVSKELMSLVSGLLQPVPERRTTLEKLVTDPWVTQPVNLADYTWEEVFRVNKPESGVLSAASLEMGNRSLSDVAQAQELCGGPVPGEAPNGQGCLHPGDPRLLTS
- Ugp1 phosphorylation (Western blot with phospho-specific Ugp1 antibody): transfected with human PASK and wild-type yeast Ugp1 (to promote phosphorylation) (lane 1) ... the phospho-Ugp1 band in lane 1
